No end group written: not given here.
Experiments:
Assay type in all cases: physicochemical
[1] = test system: pronase from S. griseus; test: Treatment of Product R with pronase, SDS-PAGE on a 16% gel; set-up: key: “−” represents no substantial alteration of the stainable bands; “+” represents substantial alteration of the stainable bands; details: 2 mg/ml pronase, 40° C., 75 minutes
Method: (§1) The biochemical properties of the peptides: Some biochemical properties of the silverstainable peptide components of Product R are analyzed using various catabolic enzymes, as described below:
The treatment with pronase (Boehringer Mannlheim. USA): Pronase is a non-specific protease, acts on both native and denatured proteins. It breaks down virtually all proteins into their individual amino acids. The preparation contains various types of endo-peptidases such as srine and metalloproteases, exo-peptidases such as carboypepsidases, neutral protease and neutral and alkaline phosphatases. A Product R sample is incubated in a reaction buffer containing 100 mM Tris-HCl, pH 7.4; 10 mM CaCl2; 0.1% SDS and 2 mg/ml of pronase from S. griseus at 40° C. for 75 minutes and then subject to SDS-PAGE on a 16% gel. All silver stained components disappear after such treatment of pronase.
(§2) A summary of the above described treatments by catabolic enzymes is provided in the following TABLE III, and the results of the treatment are shown in FIG. 5, wherein “−” represents no substantial alteration of the stainable bands and “+” represents substantial alteration of the stainable bands.

[2] = biological target: T1, bovine pancreatic Ribonuclease A (Bos taurus, UniProt P61823); test: Treatment of Product R with ribonuclease A, SDS-PAGE on a 16% gel; set-up: key: “−” represents no substantial alteration of the stainable bands; “+” represents substantial alteration of the stainable bands; details: 37° C., about 1 hour
T1 construct: purchased ICN Biochemicals, USA
T1 sequence (P61823 27-150): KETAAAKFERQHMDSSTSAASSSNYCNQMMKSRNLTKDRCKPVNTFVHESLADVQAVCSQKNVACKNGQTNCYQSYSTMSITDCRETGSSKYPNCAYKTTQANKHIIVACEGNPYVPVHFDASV
Method: as §1
The treatment with ribonuclease A (ICN Biochemicals, USA): Ribonuclease A is a pyrimidine specific endoribonuclease that acts on single stranded RNA. A Product R sample is incubated in a reaction buffer containing 10 mM Tris-HCl, pH 7.4, 3 mM MgCl2, and I mg/ml of bovine pancreatic Ribonuclease A at 37° C. for about 1 hour and subject to SDS-PAGE on a 16% gel. […] The resistance to ribonuclease A excludes the possibility of the presence of a RNA fragment attached to the peptide.
as §2

[3] = biological target: T2, proteinase K (Parengyodontium album, UniProt P06873); test: Treatment of Product R with proteinase K, SDS-PAGE on a 16% gel, silver stain; set-up: key to Sensitivity of the Peptide Components of Product R (SDS-PAGE): Proteinase K (100 μg/ml) / Sensitivity of the Peptide Components of Product R (SDS-PAGE): Proteinase K (800 μg/ml): “−” represents no substantial alteration of the stainable bands; “+” represents substantial alteration of the stainable bands; details: for Sensitivity of the Peptide Components of Product R (SDS-PAGE): Proteinase K (800 μg/ml) / change of silver stained bands after proteinase K treatment: 800 μg/ml proteinase K, one hour
T2 construct: purchased ICN Biochemicals
T2 sequence (P06873 106-384): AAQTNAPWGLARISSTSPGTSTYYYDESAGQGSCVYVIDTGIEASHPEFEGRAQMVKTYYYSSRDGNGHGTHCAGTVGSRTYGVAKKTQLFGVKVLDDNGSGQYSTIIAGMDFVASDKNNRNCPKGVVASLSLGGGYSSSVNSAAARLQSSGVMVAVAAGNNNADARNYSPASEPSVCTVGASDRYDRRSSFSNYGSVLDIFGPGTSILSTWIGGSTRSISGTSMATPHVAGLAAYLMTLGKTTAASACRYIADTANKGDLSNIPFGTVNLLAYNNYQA
Method: as §1
The treatment with proteinase K (ICN Biochemicals): Proteinase K is a non-specific broad spectrum protease that cleaves peptide bonds at the C-terminal of aliphatic, aromatic and hydrophobic amino acids. It may cleave all serum peptides completely at 50 μg/ml within one hour. […]
as §2

[4] = biological target: T3, recombinant N-glycosidase F (Elizabethkingia miricola, UniProt P21163); test: Treatment of Product R with N-glycosidase F, SDS-PAGE on a 16% gel; set-up: key: “−” represents no substantial alteration of the stainable bands; “+” represents substantial alteration of the stainable bands; details: 37° C., 4 hours
T3 construct: purchased Boehringer Mannheim, USA
T3 sequence (P21163 41-354): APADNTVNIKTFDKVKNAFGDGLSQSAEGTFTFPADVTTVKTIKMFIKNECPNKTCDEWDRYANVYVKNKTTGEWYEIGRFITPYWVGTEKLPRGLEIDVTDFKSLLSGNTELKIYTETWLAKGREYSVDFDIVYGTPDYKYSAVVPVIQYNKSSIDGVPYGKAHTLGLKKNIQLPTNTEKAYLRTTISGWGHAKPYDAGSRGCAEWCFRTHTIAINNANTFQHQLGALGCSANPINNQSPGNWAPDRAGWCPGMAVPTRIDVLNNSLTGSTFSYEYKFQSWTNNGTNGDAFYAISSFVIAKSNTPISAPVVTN
Method: as §1
The treatment with N-glycosidase F (Boehringer Mannheim, USA): N-glycosidase F cleaves all types of asparagine bound N-glycans provided that the amino group and the carboxyl group are present in a peptide linkage and the oligosaccharide has the minimum length of the chitobiose core unit. A Product R sample is incubated in a reaction buffer containing 0.4X Dulbecco's PBS (where 1X PBS contains 1.47 mM KH2 PO4, 2.67 mM KCl, 138 mM NaCl and 8.1 mM Na2 PO4 7H2O), 0.1% SDS, 0.5% NP40 and 50 units/mil of recombinant N-glycosidase F at 37° C. for 4 hours and subject to SDS-PAGE on a 16% gel. […] The resistance to N-glycosidase F indicates the lack of asparagine bound N-glycan, which is commonly observed in glycoproteins.
as §2

Sequence	Sensitivity of the Peptide Components of Product R (SDS-PAGE): Pronase (2 mg/ml) [1]	Sensitivity of the Peptide Components of Product R (SDS-PAGE): Ribonuclease A (1 mg/ml) [2]	Sensitivity of the Peptide Components of Product R (SDS-PAGE): Proteinase K (100 μg/ml) ([3]; 100 μg/ml proteinase K, 40° C., 30 minutes)	Sensitivity of the Peptide Components of Product R (SDS-PAGE): Proteinase K (800 μg/ml) [3]	change of silver stained bands after proteinase K treatment [3]	Sensitivity of the Peptide Components of Product R (SDS-PAGE): N-glycosidase F (50 units/ml) [4]
GEIPDAGGRIVDYYVGFSDSV (not fully specified (residue 18)) [Peptide-B, 21-amino acid peptide linked at serine 18 through a diphosphodiester group to the 3′-end of an adenylyl (3′-5′) adenosine moiety]	+	−	−	−	no obvious change	−
KVLPVPQKAVPYPQRDMPIQAFLLYQEPVLG [Peptide-A, 31-amino-acid long peptide derived from bovine beta-casein, constituent of Product R]	+	−		+	disappears	−

From patent US6528098B2, “Preparation of a therapeutic composition” (Advanced Viral Research Corp., priority 1996, dated 2003)
